Source: the DeepSol protein solubility set

Test: soluble on expression in E. coli; label from the status in PepcDB or PDB records

**Q.** For “MDNLLIQVTGKKRVVLFSPRDAQYLYLKGTKSEVLNIDNPDLAKYPLFSKARRYECSLEAGDVLFIPALWFHNVISEEFGVGVNIFWKHLPSECYDKTDTYGNKDPTAASRAAQILDRALKTLAELPEEYRDFYARRMVLHIQDKAYSKNSE”, which “soluble on expression in E. coli” value is on record?
**A.** not soluble

**Q.** For “MRGSHHHHHHTDPALRAMATLLQLHFAFNGPFGDAMAEQLKPLAESINQEPGFLWKVWTESEKNHEAGGIYLFTDEKSALAYLEKHTARLKNLGVEEVVAKVFDVNEPLSQINQAKLAGLCGR”, which “soluble on expression in E. coli” value is on record?
**A.** soluble

**Q.** With “NLVNFHRMIKLTTGKEAALSYGFYGCHCGVGGRGSPKDATDRCCVTHDCCYKRLEKRGCGTKFLSYKFSNSGSRITCAKQDSCRSQLCECDKAAATCFARNKTTYNKKYQYYSNKHCRGSTPRC” as the sequence, how does the “soluble on expression in E. coli” value read?
**A.** soluble

**Q.** Which “soluble on expression in E. coli” value does the source give for “MGSDKIHHHHHHMNSPADYDPKPRRASVAVDVGGVIVGGGAPVVVQSMTNTDTADIDATVRQVAALFQAGSEMVRITVDRDESAAAVPKIRERLLRLGMDVPLIGDFHYIGHKLLADHPACAEALAKYRINPGNVGFKDKKDKQFGEIVEMAIRYDKPVRIGVNWGSLDQELLTTLMDRNKEQGFPLSARQVTREAIVQSALISAELAEEIGLPRNRIILSAKVSQVQDLIAVYSMLSERSNHALHLGLTEAGMGSKGIVASSAAMGYVLQHGIGDTIRVSLTPEPNGDRTREVQVAQELLQVMGFRQFIPVVAACPGCGRTTSTVFQELAQNIQNDIRKNMPIWREKYPGVEALNVAVMGCIVNGPGESKHADIGISLPGTGESPAAPVFIDGEKALTLRGPNIAADFEALVIDYIEKRFGQKDAAE” here?
**A.** not soluble

**Q.** Which “soluble on expression in E. coli” value does the source give for “MGSDKIHHHHHHMTDPDIGDSQDHANIISILQDLGLTENESRVYILLLEYGSMAAQDILRYLPLRQPQLYDITSSLERKGFINVLLGRPKKYEAIDPEAVVEAREQILSRNRRYFLTWANRAMETRRETTALINAKNIRSVINNSIDLINETEKTLEIETTQELFAYIREPILRKIREGCRVEILFFGTDVDLEKVQNQFTDLDVDVRYVSPGQFFTVISDEKNSVFMPRSVAMNTDIERYGYVIRDKDMSWFITHNFFVGWYRGNRIKDHSVVAPYTYHSQRILISDLKRIFDQKGRVHGVLEGIVRSTGDRFTSEGEISEINSDTEIINFVFKTDRGEYTVGGYDSQIEDIVMKSFTVASFG” here?
**A.** not soluble

**Q.** Which “soluble on expression in E. coli” value does the source give for “MKIQMKTPLVELDGDEMTRVLWPLIKDKLLLPFIDLQTEYYDLGIEERDRTNDQITIDAAEAIKKYGVGVKNATITPNQDRVEEYGLKEQWKSPNATVRAMLDGTVFRKPIMVKNIKPSVRSWQKPIVVGRHAYGDFYKNAEIFAEAGGKLEIVVTDKNGKETRQTIMEVDEPAIVQGIHNTVASIGHFARACFEYSLDQKIDCWFATKDTISKQYDQRFKIIFEEIFAQEYKEKFAAAGIEYFYTLIDDVVARMMKTEGGMLWACKNYDGDVMSDMVASAFGSLAMMSSVLVSPYGYFEYEAAHGTVQRHYYQHLKGERTSTNPVALIYAWTGALRKRGELDGTPDLCAFCDSLEAITIECIESGYMTGDLARICEPAAIKVLDSIEFIDELGKRLQQLNK” here?
**A.** soluble

**Q.** Which “soluble on expression in E. coli” value does the source give for “MPSLLSSRIRNAEFAKKIVTDPAKLVPYFKNGDYVGWSGFTGVGYPKMIPNALARHVEENNLQGKLRFKLFVGASGGADTECKWAELNMIERRCPHQVGKPISKGINSGRIQFFDKHLSMFPQDLLYGYYTRNRESNTIDTAIIEATAITEDGGIVPGASVGASPELMQLAEKIIIEVNTAIPSFEGLHDIVEIPNPPHRTPININRVDDRIGKPYIKVDPKKVIGIVEADYGDITCANSPQDETSQAIAGHLVDFFHHEVSVGRLPKNLHPLQSGIGNIANAIIGGLAHSPFKDLEVWTEVLQDTFLPLFDSEKLRFATATSTRFSPQGFEKFYSNYDYYKERILLRPQVISNHPEIIRRLGCIAMNTPVEADIYAHANSTNVLGSRMLNGLGGSADFLRNAKLSIMHTPSVRPSKKDPTGITCIVPMATHVDQTEHDLDILVTEQGLADLRGLSPTERAREVIDKCAHPDYKPLLREYFDIAENYCLARGAGHEPHILANAFKMQLNLLEKGTMKIDHW” here?
**A.** soluble

**Q.** With “SFGVIQKEERFNEVFLNYFKENKIEIAHAITKLFPFLESLRDHSFITDKIYADSYEACRNSVPIVKVVYNVLSHLERLSDSSFLWALFNRVNLKEYPALREIHKSLGTELQDRYSPQKCKQEEQKLATVHPSYEQGTNLCTHEKWAQPCFVKQDNLQEPEIQQNQVDEIIVISSESSECSDEDEEDQALGTGLRRQMNKEAEDSAPHRRSRT” as the sequence, how does the “soluble on expression in E. coli” value read?
**A.** soluble

**Q.** With “MAQQAPDREKALELAMAQIDKNFGKGSVMRLGEEVRQPISVIPTGSISLDVALGIGGLPRGRVIEIYGPESSGKTTVALHAVANAQAAGGIAAFIDAEHALDPEYAKKLGVDTDSLLVSQPDTGEQALEIADMLVRSGALDIIVIDSVAALVPRAEIEGEMGDSHVGLQARLMSQALRKMTGALNNSGTTAIFINALREKIGVMFGSPETTTGGKALKFYASVRLDVRRIETLKDGTDAVGNRTRVKVVKNKVSPPFKQAEFDILYGQGISREGSLIDMGVEHGFIRKSGSWFTYEGEQLGQGKENARKFLLENTDVANEIEKKIKEKLGIGAVVTAEADDVLPAPVDF” as the sequence, how does the “soluble on expression in E. coli” value read?
**A.** soluble

**Q.** For “MSKKLLIKTWGCQMNEYDSSKMADLLNAANGYELTEEPEEADVLLLNTCSIREKAQEKVFHQLGRWKTLKDKKPGVVIGVGGCVATQEGDHIRERAPYVDVIFGPQTLHRLPEMIKQSQTDDAPVMDISFPEIEKFDRLPEPRAEGATAFVSIMEGCSKYCTYCVVPYTRGEEVSRPMDDVLFEIAQLAEQGVREVNLLGQNVNAYRGPMHDGEICSFAELLRLVASIDGIDRIRFTTSHPLEFTDDIIAVYEDTPELVSFLHLPVQSGSDRILTMMKRPHTAIEYKSIIRKLRKARPDIQISSDFIVGFPGETDKDFQDTMKLIKDVDFDMSFSFIFSPRPGTPAADYPCDIPEQVKKERLYELQQTINAQAMRYSRLMLATEQRVLVEGPSKKNLMELRARTENNRVVNFEGSADLIGQFVDVKITDVFANSLRGELVRTEKDMDLRSVISPTQMMAKTRREDELGVATFTPLEHHHHHH”, which “soluble on expression in E. coli” value is on record?
**A.** soluble

**Q.** With “MSFEQTLEKYAALAVNVGVNIQPGQTLSISAPLEAVQFVRLVTEKAYKSGAKHVYVDWNDETLTRLKFDLAPEEAFAEFPSWKAHAREELAKEGAAFMSIYAENPDLLKGVEASRIATAHKVAGEAMKVYRDYVQADKVSWCVISVPTKEWAAKVFPDVAPEEQEAKLWDAIFKATRADLENPVEAWKEHDETLHTKVDYLNEKHYKALHYTGPGTDLTIELPEKHVWAGAGSLNEKNVPFMANIPTEEVFTMPLKTGVNGQVSSTKPLVFAGNIIDNFTLTFENGRIVDYKAEAGEEALKHLVETDEGSHFLGEVALVPHDSPISNTNVLFYNTLFDENASCHLAIGNAYAFNLVGGKTMSKEELAENGANASITHNDFMIGSAELDIDGITADGRHEPIFRKGNWAF” as the sequence, how does the “soluble on expression in E. coli” value read?
**A.** not soluble

**Q.** With “MGSDKIHHHHHHMIYNDRLGEVMDLNTLIKIIEKVGRIEIEDIKITADELIINIPSAPPIVIPQTPSIKEKLAEEGIIEIKDVPELDWEPPVEKYPGYIREVQFGKPKSEGGRGKVVKIGGQRALYRFEEPQPNPPVVTFDIFDIPMPGLPKPIRQFFQDVMEDPCEWAKKCVKEFGADMITIHHISTDPKIKDKSPKEAAKLMEDLLQAVDVPFVIGGSGNPQKDPLVLEACAEVAEGDRCLLASANLELDYKKIVDAAMKYDHNVLAWSIMDPNMARDLNRKLVEAGLDPNRIVMDPTTCALGYGIEFSINAMVRLRLNGLKGDELVNMPMSSGTTNAIGAREAWMNNPEWGPREYRLPLWEITTGITMMMCGVDLFMMLNPISVKTLKEIGKTLTTKPGEVKLNTNNYEWIVSP” as the sequence, how does the “soluble on expression in E. coli” value read?
**A.** not soluble

**Q.** For “MSKAFDLVVIGAGSGGLEAGWNAATLYGKRVAVVDVQTSHGPPFYAALGGTCVNVGCVPKKLMVTGAQYMDHLRESAGFGWEFDGSSVKANWKKLIAAKNEAVLDINKSYEGMFNDTEGLDFFLGWGSLESKNVVVVRETADPKSAVKERLQADHILLATGSWPQMPAIPGIEHCISSNEAFYLPEPPRRVLTVGGGFISVEFAGIFNAYKPPGGKVTLCYRNNLILRGFDETIREEVTKQLTANGIEIMTNENPAKVSLNTDGSKHVTFESGKTLDVDVVMMAIGRIPRTNDLQLGNVGVKLTPKGGVQVDEFSRTNVPNIYAIGDITDRLMLTPVAINEGAALVDTVFGNKPRKTDHTRVASAVFSIPPIGTCGLIEEVAAKEFEKVAVYMSSFTPLMHNISGSKYKKFVAKIVTNHSDGTVLGVHLLGDGAPEIIQAVGVCLRLNAKISDFYNTIGVHPTSAEELCSMRTPSYYYVKGEKMEKLPDSNL”, which “soluble on expression in E. coli” value is on record?
**A.** soluble

**Q.** Which “soluble on expression in E. coli” value does the source give for “SNAMQAIRSILVVIEPDQLEGLALKRAQLIAGVTQSHLHLLVCEKRRDHSAALNDLAQELREEGYSVSTNQAWKDSLHQTIIAEQQAEGCGLIIKQHFPDNPLKKAILTPDDWKLLRFAPCPVLMTKTARPWTGGKILAAVDVGNNDGEHRSLHAGIISHAYDIAGLAKATLHVISAHPSPMLSSADPTFQLSETIEARYREACRTFQAEYGFSDEQLHIEEGPADVLIPRTAQKLDAVVTVIGTVARTGLSGALIGNTAEVVLDTLESDVLVLKPDDIIAHLEELASKE” here?
**A.** soluble

**Q.** Which “soluble on expression in E. coli” value does the source give for “MAHHHHHHMLRPTRVSRLVRSGSVALTPSCWTTKPAGWYLVPSSTLPATEELRVGKCFDFLNHSAQYLFLGQVMALAEEVKCIPWLEWFYSELHFSLPPTKEAELLANYMNDQERLRCGLRNHSEGGTSSSDIAWSRELKERVQRRAEEDFCWLLTHDQRKTEKFLQETFIQWHHRADYLVTRKSREKREFREDLTLQKVIQQGQERKRRMQRRRNRDEARQEAIKSGKESEWDNFTHDVLPRELREALDRESDGMEDVRLSRAGTATGGWSRSMRSHPNFR” here?
**A.** soluble

**Q.** With “MKLSDMQLFRGLEEDDISSLLSCLNSVKRNYKKGEVILSEGSIIENIGIVLSGMAMISCNEIWGNTSILGSVAPGSVFAEVYACIPGQPMLVTVSAVEDTSVLFMNVGRVLTTCTNACPFHTNLARNLLTVCAHKSLQLSQRILHTSSKSIRGRLMSYFSECAKHAGSNSFLIPYNRQQLADYLNVDRSTMCNELSKMQKDGMIEYKKNRILLKD” as the sequence, how does the “soluble on expression in E. coli” value read?
**A.** not soluble

**Q.** For “MGSDKIHHHHHHMHFAPVEQATRFLADNPDIELFELFILDANGVPRGKLLHREELLAVYQTGRPLPSTILGLTLNGDDVENSGLVWDVGDIDCRAYPLDGSLVRLPWRRVPTAAVQVSMHPSEGLPASIADPRHVLLRTIEALKADGYHPVMACELEFYLLDQQRDAQGRPQPALDNDGGRPRSTQVYGLRELEQIEPFLADLYAACKAQGIPARTAISEYAPGQVEITLEHGDALQAMDQAVRYKRLVKGVAHAHGMQACFMAKPFAQLAGTGMHMHLSLADSAGNNLFASEDKAGTPLLRQAVAGMLRHLRDSLLLFCPNANSFRRFQANSYAPLAPTWGVDNRTVSLRVPGGPANSRHVEHRICGADANPYLAAAAILAASHWGIREQLDPGAPVEGNGYAQATEHLPTDWLTALDALQHSDWAREALGEDFLGVYLKVKRAEYRQFMAEVSEQDWRWYLHQA”, which “soluble on expression in E. coli” value is on record?
**A.** not soluble

**Q.** With “MGSDKIHHHHHHMFKPQGLYDYICQQWQEEILPSLCDYIKIPNKSPHFDAKWEEHGYMEQAVNHIANWCKSHAPKGMTLEIVRLKNRTPLLFMEIPGQIDDTVLLYGHLDKQPEMSGWSDDLHPWKPVLKNGLLYGRGGADDGYSAYASLTAIRALEQQGLPYPRCILIIEACEESGSYDLPFYIELLKERIGKPSLVICLDSGAGNYEQLWMTTSLRGNLVGKLTVELINEGVHSGSASGIVADSFRVARQLISRIEDENTGEIKLPQLYCDIPDERIKQAKQCAEILGEQVYSEFPWIDSAKPVIQDKQQLILNRTWRPALTVTGADGFPAIADAGNVMRPVTSLKLSMRLPPLVDPEAASVAMEKALTQNPPYNAKVDFKIQNGGSKGWNAPLLSDWLAKAASEASMTYYDKPAAYMGEGGTIPFMSMLGEQFPKAQFMITGVLGPHSNAHGPNEFLHLDMVKKLTSCVSYVLYSFSQKK” as the sequence, how does the “soluble on expression in E. coli” value read?
**A.** not soluble
